According to article PMC12485133:

What was measured:
[1] = molecular target: N-myristoylated human Arf1 bound to GTPγS, anchored on nanodiscs (myrArf1·GTPγS) (human) (UniProt P84077)
[2] = molecular target: N-myristoylated human Arf1 bound to GTPγS, anchored on nanodiscs (myrArf1·GTPγS) (human) (UniProt P84077); experiment: not stated; binding of PH variants and Arf variants compared with wild type (Fig. SI8 and Table SI1); the method is not given

N-myristoylated human Arf1 bound to GTPγS, anchored on nanodiscs (myrArf1·GTPγS) (human), sequence (P84077 whole entry): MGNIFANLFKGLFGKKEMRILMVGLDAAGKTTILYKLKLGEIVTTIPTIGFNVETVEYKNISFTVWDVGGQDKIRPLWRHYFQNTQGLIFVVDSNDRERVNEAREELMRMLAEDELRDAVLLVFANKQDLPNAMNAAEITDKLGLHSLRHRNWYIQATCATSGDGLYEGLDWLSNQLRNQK

ASAP1 PH domain Lys391Ala (from UniProt Q9QWY8 325-451) (domain or fragment)
fold decrease in GAP activity compared with wild type (C50 of PZA, Fig. 7C) [1]: 100 fold
fold reduction of binding against wild type [2]: 2 fold
